In patent US20180085455A1 (ISU ABXIS, published 2018):
Numbering of substitutions follows the chain as printed.

B1: 472P (antibody, V domains shown)
VH: EVQLLESGGGLVQPGGSLRLSCAASGFTFSDYDMSWVRQAPGKGLEWVSGISYDGGNTYYADSVKGRFTISRDNSKNTLYLQMNSLRAEDTAVYYCARDPSWCLQDLCYYADGMDVWGQGTLVTVSS
VL: QSVLTQPPSASGTPGQRVTISCSGSSSNIGSNSVSWYQQLPGTAPKLLIYADSNRPSGVPDRFSGSKSGTSASLAISGLRSEDEADYYCGSWDYSLSGYVFGGGTKLTVLG
notes: IgG1 (Selexis 085 vector, CHO); also called anti-ErbB3 lead antibody 472P
B2: 472M1 (antibody, V domains shown)
VH: B1 VH with D31W, M34L
VL: B1 VL
notes: IgG1 (Selexis 085 vector, CHO)
B3: 472S2 (antibody, V domains shown)
VH: B1 VH with D31W, M34L, S35A
VL: B1 VL
notes: as for B2
B4: 442P (antibody, V domains shown)
VH: EVQLLESGGGLVQPGGSLRLSCAASGFTFSDYDMSWVRQAPGKGLEWVSSIYPDSGSTYYADSVQGRFTISRDNSKNTLYLQMNSLRAEDTAVYYCAKDLHMGPEGPFDYWGQGTLVTVSS
VL: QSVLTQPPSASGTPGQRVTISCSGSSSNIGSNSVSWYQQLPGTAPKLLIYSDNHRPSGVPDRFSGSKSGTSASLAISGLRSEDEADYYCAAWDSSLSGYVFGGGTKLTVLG
notes: as for B2
B5: 442S1 (antibody, V domains shown)
VH: B4 VH with S50T, Y52D, P53L, T58I
VL: B1 VL with A51S, S53N, N54H, G90Q, S91G, Y94T, Y99H
notes: as for B2
B6: 442S5 (antibody, V domains shown)
VH: B4 VH with S50I, Y52E, T58I
VL: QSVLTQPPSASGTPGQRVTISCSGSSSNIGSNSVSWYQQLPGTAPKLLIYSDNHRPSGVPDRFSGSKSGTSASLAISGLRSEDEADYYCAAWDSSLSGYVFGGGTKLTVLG
notes: as for B2
B7: 442M6 (antibody, V domains shown)
VH: B4 VH with Y52E, Y59D, L100R, G103W
VL: B1 VL with V34G, S53N, N54W, G90A, S91A, Y94S
notes: as for B2
B8: 451M5 (antibody, V domains shown)
VH: EVQLLESGGGLVQPGGSLRLSCAASGFTFSDYDMSWVRQAPGKGLEWVSAIYYDSGSIYYADSAKGRFTISRDNSKNTLYLQMNSLRAEDTAVYYCAKDRLFESDSTFDYWGQGTLVTVSS
VL: B1 VL with S26P, S31N, S35T, A51Y, N54H, Y94A, S97N
notes: as for B2
B9: 451M6 (antibody, V domains shown)
VH: B8 VH with D31H
VL: B1 VL with S26P, S31N, S35T, A51Y, N54H, Y94A, S97N
notes: as for B2
B10: 451M7 (antibody, V domains shown)
VH: B8 VH with D31Y
VL: B1 VL with S26P, S31N, S35T, A51Y, N54H, Y94A, S97N
notes: as for B2

The binders below were run against ErbB3 on cancer cells (UniProt P21860 20-1342, limits assumed) (assay: cell-based or functional assay).
In the case of B1, the “Inhibition of ErbB3 phosphorylation, IC50 (HRG-stimulated MCF7 cells)” value (“Inhibition of ErbB3 phosphorylation” below) is reported as 1.45 nM. B2 was tested, and the “Inhibition of Akt phosphorylation, IC50 (HRG-stimulated MCF7 cells)” value (shortened to “Inhibition of Akt phosphorylation, IC50”) was 0.246 nM and the “Inhibition of ErbB3 phosphorylation” value was 0.276 nM. With B3 the “Inhibition of Akt phosphorylation, IC50” value was 0.195 nM and the “Inhibition of ErbB3 phosphorylation” value was 0.148 nM. With B4 the “Inhibition of ErbB3 phosphorylation” value was 1.05 nM. In the case of B5, the “Inhibition of Akt phosphorylation, IC50” value is reported as 0.239 nM and the “Inhibition of ErbB3 phosphorylation” value is reported as 0.222 nM. For B6, the “Inhibition of Akt phosphorylation, IC50” value was 0.167 nM and the “Inhibition of ErbB3 phosphorylation” value was 0.0854 nM. B7 was tested, and the “Inhibition of Akt phosphorylation, IC50” value was 0.304 nM and the “Inhibition of ErbB3 phosphorylation” value was 0.271 nM.

These binders were tested against T1, recombinant human ErbB3 protein (R&D systems) (human, UniProt P21860 20-643) (assay: BLI (Octet QK384), human ErbB3 immobilized on AR2G sensor, IgG at 12.5-50 nM).
T1 construct: Bought recombinant protein; also called HER3
Description: After activation of carboxyl groups in 20 mM of 1-ethyl-3-(3-dimethylaminopropyl)carbodiimide hydrochloride (EDC) and 40 mM of N-hydroxysulfosuccinimide (sulfo-NHS) solution on an AR2G sensor (ForteBio), 10 μg/mL of human ErbB3 protein solution diluted with 10 mM of sodium acetate (pH 4.0) (ForteBio) was added to immobilize human ErbB3 protein onto the AR2G sensor. The AR2G sensor to which the human ErbB3 protein was immobilized and was treated with 1 M of ethanolamine (ForteBio) to inactivate the remaining unreacted carboxyl groups.
B1 showed a Kd of 0.284 nM, a koff of 0.000508 s⁻¹ and a kon of 1.79e+06 M⁻¹ s⁻¹. B8 showed a Kd of 0.0217 nM, a koff of 3.29e-05 s⁻¹ and a kon of 1.52e+06 M⁻¹ s⁻¹. B2 showed a Kd of 0.0125 nM, a koff of 1.74e-05 s⁻¹ and a kon of 1.39e+06 M⁻¹ s⁻¹. In the case of B9, the Kd is reported as 0.00347 nM, the koff is reported as 4.17e-06 s⁻¹ and the kon is reported as 1.2e+06 M⁻¹ s⁻¹. B3 showed a Kd of less than 0.001 nM, a koff of less than 1e-07 s⁻¹ and a kon of 1.07e+06 M⁻¹ s⁻¹. B10 gave a Kd of 0.00492 nM, a koff of 6.63e-06 s⁻¹ and a kon of 1.35e+06 M⁻¹ s⁻¹. Work on B4 yielded a Kd of 0.283 nM, a koff of 0.000352 s⁻¹ and a kon of 1.25e+06 M⁻¹ s⁻¹. B5 was tested, and the Kd was less than 0.001 nM, the koff was 3.94e-07 s⁻¹ and the kon was 522000 M⁻¹ s⁻¹. For B6, the Kd was 0.0175 nM, the koff was 2.74e-05 s⁻¹ and the kon was 1.57e+06 M⁻¹ s⁻¹. Binder B7 has a Kd of 0.0201 nM, a koff of 1.95e-05 s⁻¹ and a kon of 969000 M⁻¹ s⁻¹.
